In assay [1] the target is Clostridioides difficile toxin B (TcdB), full-length TcdB1 (VP10463) (Clostridioides difficile, UniProt P18177 1-2366). The assay is described as follows: SPR.
In assay [2] the target is TcdB 1285-1804 with C-terminal Avitag (RBD toxin fragment), biotinylated (Clostridioides difficile, UniProt P18177 1285-1804). The assay is described as follows: SPR. (In general: In SPR one partner is held on a chip, and binding of the other changes the refractive index at the surface.)

Where no end group is shown, it is not given here.

Clostridioides difficile toxin B (TcdB), full-length TcdB1 (VP10463), sequence (P18177 whole entry, the tested form may be a part): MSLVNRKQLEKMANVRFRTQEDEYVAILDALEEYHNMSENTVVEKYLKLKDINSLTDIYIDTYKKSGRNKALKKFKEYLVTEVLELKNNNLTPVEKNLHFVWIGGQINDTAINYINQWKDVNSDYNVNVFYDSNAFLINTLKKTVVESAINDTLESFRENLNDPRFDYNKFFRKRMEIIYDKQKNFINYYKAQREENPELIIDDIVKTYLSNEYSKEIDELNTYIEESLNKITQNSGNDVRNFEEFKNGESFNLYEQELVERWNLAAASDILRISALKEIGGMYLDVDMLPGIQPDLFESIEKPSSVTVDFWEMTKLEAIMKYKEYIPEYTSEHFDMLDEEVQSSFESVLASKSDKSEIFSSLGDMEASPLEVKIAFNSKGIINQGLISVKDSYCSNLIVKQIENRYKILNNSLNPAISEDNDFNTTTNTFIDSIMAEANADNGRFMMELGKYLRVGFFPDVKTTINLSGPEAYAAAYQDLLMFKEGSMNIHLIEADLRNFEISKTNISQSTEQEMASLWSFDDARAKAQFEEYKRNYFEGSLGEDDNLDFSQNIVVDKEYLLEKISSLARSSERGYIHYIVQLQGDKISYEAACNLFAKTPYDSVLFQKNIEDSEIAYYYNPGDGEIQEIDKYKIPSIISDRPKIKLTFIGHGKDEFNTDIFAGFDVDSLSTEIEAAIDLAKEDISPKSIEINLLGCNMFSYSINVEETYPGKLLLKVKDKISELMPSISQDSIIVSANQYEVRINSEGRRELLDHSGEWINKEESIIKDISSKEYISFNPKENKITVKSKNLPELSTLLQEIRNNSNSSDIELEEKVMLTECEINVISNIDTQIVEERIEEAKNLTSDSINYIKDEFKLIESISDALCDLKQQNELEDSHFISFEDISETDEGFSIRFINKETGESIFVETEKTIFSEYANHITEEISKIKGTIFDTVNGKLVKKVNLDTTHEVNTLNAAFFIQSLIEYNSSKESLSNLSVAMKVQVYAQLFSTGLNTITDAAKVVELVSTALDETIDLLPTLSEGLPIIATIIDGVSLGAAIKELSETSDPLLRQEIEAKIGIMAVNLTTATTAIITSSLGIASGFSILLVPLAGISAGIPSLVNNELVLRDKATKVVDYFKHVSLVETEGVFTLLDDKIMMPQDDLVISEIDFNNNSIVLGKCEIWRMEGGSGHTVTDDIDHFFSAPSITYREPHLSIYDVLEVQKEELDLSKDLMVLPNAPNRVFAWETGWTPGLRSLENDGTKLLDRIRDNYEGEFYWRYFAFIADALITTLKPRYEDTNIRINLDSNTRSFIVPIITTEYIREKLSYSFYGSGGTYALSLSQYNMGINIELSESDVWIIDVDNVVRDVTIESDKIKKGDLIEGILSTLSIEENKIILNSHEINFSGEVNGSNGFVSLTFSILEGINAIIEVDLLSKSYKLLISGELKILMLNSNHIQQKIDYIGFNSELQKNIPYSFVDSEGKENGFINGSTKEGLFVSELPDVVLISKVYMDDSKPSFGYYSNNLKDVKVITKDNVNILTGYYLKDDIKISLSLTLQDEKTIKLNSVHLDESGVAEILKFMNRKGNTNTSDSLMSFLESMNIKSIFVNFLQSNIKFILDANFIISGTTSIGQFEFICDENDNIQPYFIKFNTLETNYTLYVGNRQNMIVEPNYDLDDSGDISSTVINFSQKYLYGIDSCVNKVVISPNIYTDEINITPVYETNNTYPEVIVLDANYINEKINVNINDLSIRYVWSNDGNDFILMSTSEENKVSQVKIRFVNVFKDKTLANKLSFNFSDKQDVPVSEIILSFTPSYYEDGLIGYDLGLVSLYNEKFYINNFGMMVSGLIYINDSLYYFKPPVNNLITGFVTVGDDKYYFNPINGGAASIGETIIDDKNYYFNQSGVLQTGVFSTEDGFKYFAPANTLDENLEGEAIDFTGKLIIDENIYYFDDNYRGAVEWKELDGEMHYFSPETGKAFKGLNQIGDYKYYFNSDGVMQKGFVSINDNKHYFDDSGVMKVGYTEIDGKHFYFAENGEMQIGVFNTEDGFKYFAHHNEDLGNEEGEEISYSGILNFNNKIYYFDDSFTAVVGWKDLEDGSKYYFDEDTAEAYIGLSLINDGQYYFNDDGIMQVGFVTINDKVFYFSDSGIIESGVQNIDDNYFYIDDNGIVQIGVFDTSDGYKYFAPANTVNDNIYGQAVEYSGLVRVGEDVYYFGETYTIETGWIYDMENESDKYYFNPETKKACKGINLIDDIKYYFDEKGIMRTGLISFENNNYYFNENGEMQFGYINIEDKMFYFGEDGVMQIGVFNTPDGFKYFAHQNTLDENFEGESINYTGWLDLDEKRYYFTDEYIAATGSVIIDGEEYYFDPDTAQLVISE
TcdB 1285-1804 with C-terminal Avitag (RBD toxin fragment), biotinylated, sequence (P18177 1285-1804): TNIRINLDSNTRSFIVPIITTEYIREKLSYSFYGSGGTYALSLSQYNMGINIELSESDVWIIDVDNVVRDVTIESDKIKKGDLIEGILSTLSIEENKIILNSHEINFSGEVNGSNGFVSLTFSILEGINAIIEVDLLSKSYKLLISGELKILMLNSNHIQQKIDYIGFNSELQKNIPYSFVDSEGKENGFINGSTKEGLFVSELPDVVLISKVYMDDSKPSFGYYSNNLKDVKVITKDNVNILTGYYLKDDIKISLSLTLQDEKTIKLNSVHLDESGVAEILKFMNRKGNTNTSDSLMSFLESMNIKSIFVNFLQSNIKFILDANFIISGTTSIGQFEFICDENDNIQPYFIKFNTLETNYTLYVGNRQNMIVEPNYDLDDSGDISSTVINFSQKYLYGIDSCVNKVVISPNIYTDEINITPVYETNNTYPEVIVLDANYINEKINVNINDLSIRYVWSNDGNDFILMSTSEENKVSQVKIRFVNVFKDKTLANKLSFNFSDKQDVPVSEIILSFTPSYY

B1: cspg4 (designed minibinder) (designed binder)
chain: ENKLARAVVTVNKSWLATQLFVRLYRLCKAGDPRCEEVAEKLRKVLELQGVPETDIELVVEVAKG
What is called Kd is a measure of binding affinity in units of concentration. In the case of B1, in assay [1], the affinity, expressed as Kd, was 2000 pM.

B2: fzd48 (designed binder)
chain: KEELEKMIEELKKLIENGDKENFIKLFDEAFKKAKESRDPRTIASVWTLVLEFKNKN
With B2, in assay [2], the Kd is < 10 pM.

B3: ss2cspg18 (designed binder)
chain: MDEKVEKLKECLEKLKEKGDIKGVIDTERAIRICERSRHKEFCEWAIEKCENRIKES
modifications: disulfide (positions not given here)
For the molecule B3, in assay [1], the dissociation constant Kd was found to be 870 pM.

B4: fzd13 (designed binder)
chain: AEKEVQELIDKALNTPDPKVASKYIISAVYVAAKARDPSLFQSALDTAKKL
In the case of B4, the equilibrium dissociation constant (Kd) in assay [2] is 5.6 pM.

These data come from paper PMC12501149 (2025).
